Experimental data as given in publication PMC8298264, “Function of cofactor Akirin2 in the regulation of gene expression in model human neutrophil-like HL60 cells” (Bioscience Reports, 2021).

B1: sp¦Q12931¦TRAP1_HUMAN (protein, UniProt Q12931 60-704, looked up)
Heat shock protein 75 kDa, …: STQTAEDKEEPLHSIISSTESVQGSTSKHEFQAETKKLLDIVARSLYSEKEVFIRELISNASDALEKLRHKLVSDGQALPEMEIHLQTNAEKGTITIQDTGIGMTQEELVSNLGTIARSGSKAFLDALQNQAEASSKIIGQFGVGFYSAFMVADRVEVYSRSAAPGSLGYQWLSDGSGVFEIAEASGVRTGTKIIIHLKSDCKEFSSEARVRDVVTKYSNFVSFPLYLNGRRMNTLQAIWMMDPKDVREWQHEEFYRYVAQAHDKPRYTLHYKTDAPLNIRSIFYVPDMKPSMFDVSRELGSSVALYSRKVLIQTKATDILPKWLRFIRGVVDSEDIPLNLSRELLQESALIRKLRDVLQQRLIKFFIDQSKKDAEKYAKFFEDYGLFMREGIVTATEQEVKEDIAKLLRYESSALPSGQLTSLSEYASRMRAGTRNIYYLCAPNRHLAEHSPYYEAMKKKDTEVLFCFEQFDELTLLHLREFDKKKLISVETDIVVDHYKEEKFEDRSPAAECLSEKETEELMAWMRNVLGSRVTNVKVTLRLDTHPAMVTVLEMGAARHFLRMQQLAKTQEERAQLLQPTLEINPRHALIKKLNQLRASEPGLAQLLVDQIYENAMIAAGLVDDPRAMVGRLNELLVKALERH
B2: sp¦Q9NPJ3¦ACO13_HUMAN (protein, UniProt Q9NPJ3 1-140, looked up)
Acyl-coenzyme A thioesterase …: MTSMTQSLREVIKAMTKARNFERVLGKITLVSAAPGKVICEMKVEEEHTNAIGTLHGGLTATLVDNISTMALLCTERGAPGVSVDMNITYMSPAKLGEDIVITAHVLKQGKTLAFTSVDLTNKATGKLIAQGRHTKHLGN
B3: sp¦P22087¦FBRL_HUMAN (protein, UniProt P22087 1-321, looked up)
rRNA 2'-O-methyltransferase …: MKPGFSPRGGGFGGRGGFGDRGGRGGRGGFGGGRGRGGGFRGRGRGGGGGGGGGGGGGRGGGGFHSGGNRGRGRGGKRGNQSGKNVMVEPHRHEGVFICRGKEDALVTKNLVPGESVYGEKRVSISEGDDKIEYRAWNPFRSKLAAAILGGVDQIHIKPGAKVLYLGAASGTTVSHVSDIVGPDGLVYAVEFSHRSGRDLINLAKKRTNIIPVIEDARHPHKYRMLIAMVDVIFADVAQPDQTRIVALNAHTFLRNGGHFVISIKANCIDSTASAEAVFASEVKKMQQENMKPQEQLTLEPYERDHAVVVGVYRPPPKVKN
B4: sp¦Q9BVP2¦GNL3_HUMAN (protein, UniProt Q9BVP2 1-549, looked up)
Guanine nucleotide-binding …: MKRPKLKKASKRMTCHKRYKIQKKVREHHRKLRKEAKKRGHKKPRKDPGVPNSAPFKEALLREAELRKQRLEELKQQQKLDRQKELEKKRKLETNPDIKPSNVEPMEKEFGLCKTENKAKSGKQNSKKLYCQELKKVIEASDVVLEVLDARDPLGCRCPQVEEAIVQSGQKKLVLILNKSDLVPKENLESWLNYLKKELPTVVFRASTKPKDKGKITKRVKAKKNAAPFRSEVCFGKEGLWKLLGGFQETCSKAIRVGVIGFPNVGKSSIINSLKQEQMCNVGVSMGLTRSMQVVPLDKQITIIDSPSFIVSPLNSSSALALRSPASIEVVKPMEAASAILSQADARQVVLKYTVPGYRNSLEFFTVLAQRRGMHQKGGIPNVEGAAKLLWSEWTGASLAYYCHPPTSWTPPPYFNESIVVDMKSGFNLEELEKNNAQSIRAIKGPHLANSILFQSSGLTNGIIEEKDIHEELPKRKERKQEEREDDKDSDQETVDEEVDENSSGMFAAEETGEALSEETTAGEQSTRSFILDKIIEEDDAYDFSTDYV
B5: sp¦Q6NVY1¦HIBCH_HUMAN (protein, UniProt Q6NVY1 33-386, looked up)
3-hydroxyisobutyryl-CoA …: DAAEEVLLEKKGCTGVITLNRPKFLNALTLNMIRQIYPQLKKWEQDPETFLIIIKGAGGKAFCAGGDIRVISEAEKAKQKIAPVFFREEYMLNNAVGSCQKPYVALIHGITMGGGVGLSVHGQFRVATEKCLFAMPETAIGLFPDVGGGYFLPRLQGKLGYFLALTGFRLKGRDVYRAGIATHFVDSEKLAMLEEDLLALKSPSKENIASVLENYHTESKIDRDKSFILEEHMDKINSCFSANTVEEIIENLQQDGSSFALEQLKVINKMSPTSLKITLRQLMEGSSKTLQEVLTMEYRLSQACMRGHDFHEGVRAVLIDKDQSPKWKPADLKEVTEEDLNNHFKSLGSSDLKF
B6: sp¦P26639¦SYTC_HUMAN (protein, UniProt P26639 1-723, looked up)
Threonine--tRNA ligase 1, …: MFEEKASSPSGKMGGEEKPIGAGEEKQKEGGKKKNKEGSGDGGRAELNPWPEYIYTRLEMYNILKAEHDSILAEKAEKDSKPIKVTLPDGKQVDAESWKTTPYQIACGISQGLADNTVIAKVNNVVWDLDRPLEEDCTLELLKFEDEEAQAVYWHSSAHIMGEAMERVYGGCLCYGPPIENGFYYDMYLEEGGVSSNDFSSLEALCKKIIKEKQAFERLEVKKETLLAMFKYNKFKCRILNEKVNTPTTTVYRCGPLIDLCRGPHVRHTGKIKALKIHKNSSTYWEGKADMETLQRIYGISFPDPKMLKEWEKFQEEAKNRDHRKIGRDQELYFFHELSPGSCFFLPKGAYIYNALIEFIRSEYRKRGFQEVVTPNIFNSRLWMTSGHWQHYSENMFSFEVEKELFALKPMNCPGHCLMFDHRPRSWRELPLRLADFGVLHRNELSGALTGLTRVRRFQQDDAHIFCAMEQIEDEIKGCLDFLRTVYSVFGFSFKLNLSTRPEKFLGDIEVWDQAEKQLENSLNEFGEKWELNSGDGAFYGPKIDIQIKDAIGRYHQCATIQLDFQLPIRFNLTYVSHDGDDKKRPVIVHRAILGSVERMIAILTENYGGKWPFWLSPRQVMVVPVGPTCDEYAQKVRQQFHDAKFMADIDLDPGCTLNKKIRNAQLAQYNFILVVGEKEKISGTVNIRTRDNKVHGERTISETIERLQQLKEFRSKQAEEEF
B7: sp¦O00160¦MYO1F_HUMAN (protein, UniProt O00160 1-1098, looked up)
Unconventional myosin-If: MGSKERFHWQSHNVKQSGVDDMVLLPQITEDAIAANLRKRFMDDYIFTYIGSVLISVNPFKQMPYFTDREIDLYQGAAQYENPPHIYALTDNMYRNMLIDCENQCVIISGESGAGKTVAAKYIMGYISKVSGGGEKVQHVKDIILQSNPLLEAFGNAKTVRNNNSSRFGKYFEIQFSRGGEPDGGKISNFLLEKSRVVMQNENERNFHIYYQLLEGASQEQRQNLGLMTPDYYYYLNQSDTYQVDGTDDRSDFGETLSAMQVIGIPPSIQQLVLQLVAGILHLGNISFCEDGNYARVESVDLLAFPAYLLGIDSGRLQEKLTSRKMDSRWGGRSESINVTLNVEQAAYTRDALAKGLYARLFDFLVEAINRAMQKPQEEYSIGVLDIYGFEIFQKNGFEQFCINFVNEKLQQIFIELTLKAEQEEYVQEGIRWTPIQYFNNKVVCDLIENKLSPPGIMSVLDDVCATMHATGGGADQTLLQKLQAAVGTHEHFNSWSAGFVIHHYAGKVSYDVSGFCERNRDVLFSDLIELMQTSEQAFLRMLFPEKLDGDKKGRPSTAGSKIKKQANDLVATLMRCTPHYIRCIKPNETKRPRDWEENRVKHQVEYLGLKENIRVRRAGFAYRRQFAKFLQRYAILTPETWPRWRGDERQGVQHLLRAVNMEPDQYQMGSTKVFVKNPESLFLLEEVRERKFDGFARTIQKAWRRHVAVRKYEEMREEASNILLNKKERRRNSINRNFVGDYLGLEERPELRQFLGKRERVDFADSVTKYDRRFKPIKRDLILTPKCVYVIGREKVKKGPEKGQVCEVLKKKVDIQALRGVSLSTRQDDFFILQEDAADSFLESVFKTEFVSLLCKRFEEATRRPLPLTFSDTLQFRVKKEGWGGGGTRSVTFSRGFGDLAVLKVGGRTLTVSVGDGLPKSSKPTRKGMAKGKPRRSSQAPTRAAPAPPRGMDRNGVPPSARGGPLPLEIMSGGGTHRPPRGPPSTSLGASRRPRARPPSEHNTEFLNVPDQGMAGMQRKRSVGQRPVPGVGRPKPQPRTHGPRCRALYQYVGQDVDELSFNVNEVIEILMEDPSGWWKGRLHGQEGLFPGNYVEKI
B8: sp¦O60832¦DKC1_HUMAN (protein, UniProt O60832 2-514, looked up)
H/ACA ribonucleoprotein …: ADAEVIILPKKHKKKKERKSLPEEDVAEIQHAEEFLIKPESKVAKLDTSQWPLLLKNFDKLNVRTTHYTPLACGSNPLKREIGDYIRTGFINLDKPSNPSSHEVVAWIRRILRVEKTGHSGTLDPKVTGCLIVCIERATRLVKSQQSAGKEYVGIVRLHNAIEGGTQLSRALETLTGALFQRPPLIAAVKRQLRVRTIYESKMIEYDPERRLGIFWVSCEAGTYIRTLCVHLGLLLGVGGQMQELRRVRSGVMSEKDHMVTMHDVLDAQWLYDNHKDESYLRRVVYPLEKLLTSHKRLVMKDSAVNAICYGAKIMLPGVLRYEDGIEVNQEIVVITTKGEAICMAIALMTTAVISTCDHGIVAKIKRVIMERDTYPRKWGLGPKASQKKLMIKQGLLDKHGKPTDSTPATWKQEYVDYSESAKKEVVAEVVKAPQVVAEAAKTAKRKRESESESDETPPAAPQLIKKEKKKSKKDKKAKAGLESGAEPGDGDSDTTKKKKKKKKAKEVELVSE
B9: sp¦P50213¦IDH3A_HUMAN (protein, UniProt P50213 28-366, looked up)
Isocitrate dehydrogenase …: TGGVQTVTLIPGDGIGPEISAAVMKIFDAAKAPIQWEERNVTAIQGPGGKWMIPSEAKESMDKNKMGLKGPLKTPIAAGHPSMNLLLRKTFDLYANVRPCVSIEGYKTPYTDVNIVTIRENTEGEYSGIEHVIVDGVVQSIKLITEGASKRIAEFAFEYARNNHRSNVTAVHKANIMRMSDGLFLQKCREVAESCKDIKFNEMYLDTVCLNMVQDPSQFDVLVMPNLYGDILSDLCAGLIGGLGVTPSGNIGANGVAIFESVHGTAPDIAGKDMANPTALLLSAVMMLRHMGLFDHAARIEAACFATIKDGKSLTKDLGGNAKCSDFTEEICRRVKDLD
B10: sp¦P54687¦BCAT1_HUMAN (protein, UniProt P54687 1-386, looked up)
Branched-chain-amino-acid …: MKDCSNGCSAECTGEGGSKEVVGTFKAKDLIVTPATILKEKPDPNNLVFGTVFTDHMLTVEWSSEFGWEKPHIKPLQNLSLHPGSSALHYAVELFEGLKAFRGVDNKIRLFQPNLNMDRMYRSAVRATLPVFDKEELLECIQQLVKLDQEWVPYSTSASLYIRPTFIGTEPSLGVKKPTKALLFVLLSPVGPYFSSGTFNPVSLWANPKYVRAWKGGTGDCKMGGNYGSSLFAQCEAVDNGCQQVLWLYGEDHQITEVGTMNLFLYWINEDGEEELATPPLDGIILPGVTRRCILDLAHQWGEFKVSERYLTMDDLTTALEGNRVREMFGSGTACVVCPVSDILYKGETIHIPTMENGPKLASRILSKLTDIQYGREESDWTIVLS

System: human HL60 cells
Experiment: SWATH-MS proteomics, differential protein representation, akirin2 KO vs WT HL60 cells
Type: cell-based
Details: SWATH-MS, akirin2 KO vs WT HL60 cells; sheet "Under-represented in KO"
Procedure, shortened: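 Three biological replicates per genotype; 150 µg protein FASP/trypsin digested; IDA library (3 µg digest); SWATH variable windows, 5 µg/sample, 3.6 s cycle; gradient 5–30% B 120 min then 30–60% B 15 min; 1% global FDR; TAS normalization.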

Going from B1 to B2, the “Fold Change” value rises from 0.7682 to 0.7707.

Going from B3 to B4, the “Fold Change” value rises from 0.7688 to 0.7833.

Going from B5 to B6, the “Fold Change” value rises from 0.7678 to 0.7727.

Compared with B7, B8 is higher in “Fold Change” value: 0.7701 for the first, 0.774 for the second.

First: B9
Second: B10
The “Fold Change” value of the first is higher: 0.7755 for the first, 0.7726 for the second.

B1 and B2 are within 0.2 log units of each other in “Log (Fold Change)” value: -0.1145 for the first, -0.1131 for the second.

B3 and B4 are within 0.2 log units of each other in “Log (Fold Change)” value: -0.1142 for the first, -0.1061 for the second.

B5 and B6 are within 0.2 log units of each other in “Log (Fold Change)” value: -0.1147 for the first, -0.112 for the second.

B7 and B8 are within 0.2 log units of each other in “Log (Fold Change)” value: -0.1134 for the first, -0.1113 for the second.

B9 and B10 are within 0.2 log units of each other in “Log (Fold Change)” value: -0.1104 for the first, -0.112 for the second.
